Values of other authors, collected in article PMC5488749.
pKd: −log10 of the molar value. Where two headings read alike, the source gives them in different places.

Legend:
[1] = biological target: neurexin1 C-terminal peptide (Homo sapiens) (UniProt Q9ULB1)
[2] = biological target: Caspr4 C-terminal peptide (Homo sapiens) (UniProt Q9C0A0)
[3] = biological target: neurexin1 C-terminal peptide (Homo sapiens) (UniProt Q9ULB1); remark: listed apart in the source
[4] = biological target: Caspr4 C-terminal peptide (Homo sapiens) (UniProt Q9C0A0); remark: listed apart in the source

Sequence of UniProt Q9C0A0 (Q9C0A0 whole entry, looked up, tested part not stated): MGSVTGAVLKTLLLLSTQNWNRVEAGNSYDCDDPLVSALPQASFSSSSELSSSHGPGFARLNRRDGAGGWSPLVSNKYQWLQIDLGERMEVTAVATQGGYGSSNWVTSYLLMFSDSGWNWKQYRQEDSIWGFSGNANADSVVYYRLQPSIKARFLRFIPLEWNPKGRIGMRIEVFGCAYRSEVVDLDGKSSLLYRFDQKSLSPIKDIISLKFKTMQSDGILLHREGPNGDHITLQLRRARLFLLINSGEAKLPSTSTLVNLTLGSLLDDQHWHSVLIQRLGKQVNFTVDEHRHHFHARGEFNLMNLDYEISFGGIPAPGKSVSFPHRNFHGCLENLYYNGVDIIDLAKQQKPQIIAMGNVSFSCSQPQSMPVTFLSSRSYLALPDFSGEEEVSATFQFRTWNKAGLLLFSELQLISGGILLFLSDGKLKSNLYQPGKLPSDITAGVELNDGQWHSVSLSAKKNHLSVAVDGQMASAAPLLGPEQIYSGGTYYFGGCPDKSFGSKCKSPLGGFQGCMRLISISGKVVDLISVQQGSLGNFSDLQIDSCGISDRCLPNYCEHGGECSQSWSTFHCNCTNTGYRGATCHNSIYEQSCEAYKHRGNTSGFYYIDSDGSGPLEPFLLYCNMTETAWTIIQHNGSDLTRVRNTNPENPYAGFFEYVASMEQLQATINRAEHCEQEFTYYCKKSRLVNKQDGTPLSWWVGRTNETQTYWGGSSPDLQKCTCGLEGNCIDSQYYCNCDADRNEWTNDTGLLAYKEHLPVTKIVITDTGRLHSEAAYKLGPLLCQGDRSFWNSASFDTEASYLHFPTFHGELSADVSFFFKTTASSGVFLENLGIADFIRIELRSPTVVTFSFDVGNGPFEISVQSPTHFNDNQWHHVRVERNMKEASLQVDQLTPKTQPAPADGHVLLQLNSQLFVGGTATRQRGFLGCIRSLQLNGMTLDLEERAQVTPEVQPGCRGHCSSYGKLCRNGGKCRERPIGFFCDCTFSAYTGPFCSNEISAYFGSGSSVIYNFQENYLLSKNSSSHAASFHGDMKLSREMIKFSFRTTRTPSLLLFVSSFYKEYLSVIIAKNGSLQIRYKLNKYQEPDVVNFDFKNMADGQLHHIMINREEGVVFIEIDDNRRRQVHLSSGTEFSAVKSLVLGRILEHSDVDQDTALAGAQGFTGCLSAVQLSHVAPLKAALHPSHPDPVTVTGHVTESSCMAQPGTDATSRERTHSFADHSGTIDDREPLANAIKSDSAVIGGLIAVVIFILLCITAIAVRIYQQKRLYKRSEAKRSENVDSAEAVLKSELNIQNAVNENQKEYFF
Sequence of UniProt Q9ULB1 (Q9ULB1 whole entry, looked up, tested part not stated): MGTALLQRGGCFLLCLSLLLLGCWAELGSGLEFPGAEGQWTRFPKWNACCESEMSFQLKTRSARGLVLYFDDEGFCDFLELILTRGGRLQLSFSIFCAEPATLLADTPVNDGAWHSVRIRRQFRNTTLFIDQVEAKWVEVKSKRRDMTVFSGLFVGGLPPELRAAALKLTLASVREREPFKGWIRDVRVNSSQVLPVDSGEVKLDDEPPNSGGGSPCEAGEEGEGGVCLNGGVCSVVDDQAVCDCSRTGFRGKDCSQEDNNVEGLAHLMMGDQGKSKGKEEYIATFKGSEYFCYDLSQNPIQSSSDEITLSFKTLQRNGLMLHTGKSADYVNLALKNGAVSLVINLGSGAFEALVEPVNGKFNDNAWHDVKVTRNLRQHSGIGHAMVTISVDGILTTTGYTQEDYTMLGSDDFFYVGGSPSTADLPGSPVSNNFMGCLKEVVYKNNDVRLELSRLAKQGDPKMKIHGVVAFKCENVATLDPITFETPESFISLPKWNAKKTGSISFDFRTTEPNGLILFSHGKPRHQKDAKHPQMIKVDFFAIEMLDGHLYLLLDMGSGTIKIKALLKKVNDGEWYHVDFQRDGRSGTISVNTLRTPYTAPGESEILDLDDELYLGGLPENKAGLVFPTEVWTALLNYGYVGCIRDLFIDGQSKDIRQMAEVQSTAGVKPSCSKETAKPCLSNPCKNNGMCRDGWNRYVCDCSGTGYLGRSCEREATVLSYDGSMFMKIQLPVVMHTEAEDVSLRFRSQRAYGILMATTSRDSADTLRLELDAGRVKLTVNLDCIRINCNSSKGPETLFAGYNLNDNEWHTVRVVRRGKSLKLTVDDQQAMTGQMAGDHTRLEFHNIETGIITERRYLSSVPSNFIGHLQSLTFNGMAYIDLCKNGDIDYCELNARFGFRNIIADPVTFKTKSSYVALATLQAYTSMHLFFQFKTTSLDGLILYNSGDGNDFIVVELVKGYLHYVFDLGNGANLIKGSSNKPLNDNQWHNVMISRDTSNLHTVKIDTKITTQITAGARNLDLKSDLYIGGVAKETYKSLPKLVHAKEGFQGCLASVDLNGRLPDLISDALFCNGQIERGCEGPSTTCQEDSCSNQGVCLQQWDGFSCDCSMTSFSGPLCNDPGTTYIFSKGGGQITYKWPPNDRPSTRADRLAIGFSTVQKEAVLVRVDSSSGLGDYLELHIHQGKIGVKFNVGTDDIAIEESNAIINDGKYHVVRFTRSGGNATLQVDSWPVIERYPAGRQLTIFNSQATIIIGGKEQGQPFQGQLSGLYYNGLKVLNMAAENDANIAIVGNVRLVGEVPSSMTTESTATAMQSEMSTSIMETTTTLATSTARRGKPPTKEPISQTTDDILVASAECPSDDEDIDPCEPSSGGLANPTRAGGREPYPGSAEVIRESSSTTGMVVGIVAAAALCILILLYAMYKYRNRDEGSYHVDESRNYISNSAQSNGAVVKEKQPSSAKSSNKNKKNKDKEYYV

pKd [1] | pKd [2] | pKd [3] | pKd [4] | Substance
2.62 | 4.74 | – | – | Tiam1 PDZ (from UniProt Q13009)
– | – | 5.30 | 5.52 | Tiam2 PDZ (from UniProt Q8IVF5)
